Test results as given in the RNAGym collection of RNA variant scans (doi:10.7554/elife.80360).

B1: Hairpin Ribozyme (parent)
chain: GUCCUCUUUCACGUGCGCGUGAAAGAGAGAAGUGAACCAGAGAAACACACGUUGUGGUAUAUUACCUGGUA

Variants of: B1
Assay: self-cleavage, relative activity (ratio to wild type); higher = more cleavage; co-transcriptional

Point of comparison: A49C, self-cleavage 0.161. Against it:
- A49G U67A — higher, 0.208
- C50U U70G — higher, 0.178
- C50U U70C — higher, 0.34
- C50G U53C — higher, 0.327
- C50U U58A — higher, 0.194
- C50U U58C — higher, 0.232
- C48U G54C — lower, 0.129
- C48U G54A — higher, 0.163
- C48U G54U — higher, 0.203
- A49G G56A — higher, 0.204
- A49C G54C — higher, 0.187
- C50G G51U — higher, 0.375
- C50G G51A — higher, 0.249
- C50A A71G — higher, 0.253
- A49U G54C — higher, 0.28
- C50U G54C — higher, 0.534
- C50A G54U — higher, 0.97
- G51A G56C — lower, 0.148
- A49G U63G — lower, 0.158
- A49C C50G — lower, 0.129
- C50A U63C — higher, 0.198
- C50G G56U — lower, 0.124
- C50G G56A — higher, 0.226
- C50G G56C — lower, 0.0923
- A49U U63C — higher, 0.172
- A49C U63A — lower, 0.0427
- A49C U63G — lower, 0.153
- A49G G68U — higher, 0.215
- C48U G69U — higher, 0.182
- C48U G69C — lower, 0.124
- A49G — higher, 0.57
- A49U — higher, 0.179
- A49C A71U — higher, 0.27
- A49C C66G — higher, 0.301
- A49C C66U — higher, 0.183
- C50G A64G — higher, 0.164
- C50U U55G — higher, 0.368
- A49C U70G — lower, 0.0833
- A49C U70A — lower, 0.157
- A49C U70C — lower, 0.0597
- C50G A59U — lower, 0.112
- G51A A61G — higher, 0.269
- G51A A61U — higher, 0.192
- C50A G56C — lower, 0.104
- C50A G56U — higher, 0.274
- A49G A61C — lower, 0.0946
- A49U G57A — higher, 0.192
- A49U G57U — higher, 0.228
- A49C U58G — higher, 0.286
- A49C U58C — higher, 0.316
- C50A G51U — higher, 0.399
- A49G G57C — lower, 0.0948
- A49G G57A — lower, 0.111
- C50A A59C — higher, 0.167
- C50A A59G — lower, 0.0618
- A49G U60G — higher, 0.547
- A49C A61U — lower, 0.104
- C50A A61C — higher, 0.173
- C50U C65U — higher, 0.199
- G51A G68A — higher, 0.555
- G51A G68U — higher, 0.474
- G51A G68C — higher, 0.31
- A49C U62A — lower, 0.15
- C50U — higher, 0.396
- C50A — higher, 0.283
- C50G — higher, 0.275
- G51A G57C — lower, 0.158
- G51A G57A — lower, 0.142
- A49C G56A — higher, 0.17
- C50G G68C — lower, 0.0881
- A49G U55C — higher, 1.17
- A49G U55G — higher, 0.498
- A49U U70G — higher, 0.39
- A49U A71G — higher, 0.221
- A49U A71U — lower, 0.146
- C50G U60G — lower, 0.158
- C50G U60A — higher, 0.268
- A49U G51U — lower, 0.135
- C50A U60A — higher, 0.388
- C50G C65G — the same, 0.161
- C50G U52A — higher, 0.216
- A49U C65G — higher, 0.171
- C50G U62A — higher, 0.213
- C48U G57C — higher, 0.163
- C48U G57U — higher, 0.204
- C48U U58C — higher, 0.333
- C50G C66A — higher, 0.193
- A49C A64U — higher, 0.178
- A49U G68U — lower, 0.128
- A49U G68C — lower, 0.14
- A49U G69U — higher, 0.193
- A49U G69C — lower, 0.139
- C50G G57A — lower, 0.0857
- C50G G57C — higher, 0.181
- C50A G57A — lower, 0.138
- A49C A59U — higher, 0.287
- A49U A61C — lower, 0.0823
- C50A U67C — lower, 0.0958
- C50A U67G — lower, 0.118
- C50G U55G — higher, 0.368
- C50G U55A — lower, 0.153
- C50G A61G — higher, 0.175
- C50G A61U — higher, 0.248
- C50G A61C — lower, 0.0643
- C50G U63A — higher, 0.177
- C50G U63C — lower, 0.114
- C48U U53C — higher, 0.233
- C50U U60G — higher, 0.205
- C50U U60C — higher, 0.729
- A49G C50A — higher, 0.249
- A49G C50U — lower, 0.129
- A49G U58G — higher, 0.45
- A49G U58C — higher, 0.532
- A49G C66U — higher, 0.258
- C50U U67C — lower, 0.157
- G51A C66G — higher, 0.611
- C50A A64C — lower, 0.124
- C50A A64U — lower, 0.13
- A49C G51A — lower, 0.0757
- C48U U55C — lower, 0.132
- C50A U53C — higher, 0.296
- A49C G57C — lower, 0.121
- A49C C65A — higher, 0.225
- A49C C65G — higher, 0.168
- A49U U52A — higher, 0.209
- A49U A64U — lower, 0.0352
- C50U A61G — higher, 0.199
- C50A G68U — lower, 0.15
- C50A G68C — higher, 0.178
- C50A G68A — lower, 0.143
- G51A A71C — higher, 1.49
- A49G C65G — higher, 0.184
- A49G C65U — lower, 0.107
- C50A G69C — lower, 0.12
- C48U U63A — higher, 0.173
- C50A C66U — lower, 0.15
- C50A C66G — higher, 0.217
- A49G A64C — higher, 0.248
- A49G A64G — lower, 0.155
- A49U U55G — higher, 0.366
- C48U U60G — lower, 0.125
- C48U U60C — higher, 0.389
- A49C U52C — lower, 0.16
- A49U A59U — higher, 0.178
- A49U A59C — higher, 0.179
- A49G G51C — higher, 0.495
- A49G G51A — higher, 0.651
- C48U G51C — lower, 0.0415
- A49U U60C — higher, 0.331
- C50U C66U — lower, 0.159
- C48U U52G — higher, 0.311
- C48U U52A — lower, 0.138
- C50G U70G — higher, 0.314
- C50U U62C — lower, 0.0808
- C50U U62G — lower, 0.158
- G51A A59U — higher, 0.178
- G51A A59G — higher, 0.25
- G51A A64C — higher, 0.173
- C48U G56A — higher, 0.222
- C50U G68A — higher, 0.194
- A49C U55G — higher, 0.343
- A49C U55C — higher, 0.273
- C50U G56C — higher, 0.19
- A49U U62G — lower, 0.0483
- A49C U60A — higher, 0.333
- A49C U60C — higher, 0.165
